Fewer inactive variants are shown than the library holds.
B1: TPR 5TU (parent)
chain: GGAUCUUCUCGAUCUAACAAAAAAGACAAAUCUGCCACAAAGCUUGAGAGCAUCUUCGGAUGCAGAGGCGGCAGCCUUCGGUGGCGCGAUAGCGCCAACGUUCUCAACUAUGACACGCAAAACGCGUGCUCCGUUGAAUGGAGUUUAUCAUG

Variants of: B1
Test: polymerase ribozyme fitness, log enrichment relative to wild type (log ratio); higher = more active; in vitro selection for triplet polymerase activity
Method in brief: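 Each subunit of a heterodimeric triplet polymerase ribozyme was represented by a PCR-built, transcribed mutant library that underwent triplicate single-round in vitro selection with frozen incubation at −7 °C. Extended constructs were recovered by gel excision, streptavidin-bead capture and RT-PCR, and Illumina sequencing of input and output libraries kept genotypes with ≥10 input reads and ≥1 read per output. Fitness is the logarithm of genotype enrichment relative to wild-type enrichment, from inverse-variance-weighted replicate averages, with a logarithm base of 2.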

| Variant | polymerase ribozyme fitness (log ratio) |
| --- | --- |
| GGAUCUUCUCGAUCUAACAAAAAAGACAAAUCUGCCACAAAGCUUGAGAGCAUCUUCGGAUGCAGAGGCGGCAGCCUUCGGUGGCGCGAUGGCGCCAACGUUCUCGACUAUGACACGCAAAACGCGUGCUCCGUUGAAUGGAGUUUAUCUUG [A91G A106G A150U] | -0.616 |
| GGAUCUUCUCGAUCUCACAAAAAAGACAAAUCUGCCACAAAGCUUGAGAGCAUCUUCGGAUGCAGAGGCGGCAGCCUUCGGUGGCCCGAUAGCGCCAACGUUCUCAACUAUGACACGCAAAACGCGUGCUCCGUUGAAUGGAGUUUAUCAUG [A16C G86C] | -3.43 |
| GGAUCUUCUCGAUCUAACAAAAAAGACAAAUCUGCCACAAAGCUUGAGAGCAUCUUCGGAUGCAGAGGCGGCAGCCUUCGGUGCCGCGAUAGCGCCAACGAUCUCAACUAUGACACGCAAAGCGCUUGCUCCGUUGAAUGGAGUUUAUCAUG [G84C U101A A122G G126U] | -3.41 |
| GGAUCUUCUCGAUCUAACAAAAAAGACAAAUCUGCCACAAAUCUUGAGAGCAUCUUCGAAUGCAGAGGCGGCAGCCUUCGGUGGCGCGAUAGCGCCAACGUUCUCAACUAUGACACGCAAAACGCGUGCUCCGUUGAAUGGAGUUUAUCAUG [G42U G59A] | ≤ -4.2 |
| GGAUCUUCUCGAUCUAACAAAAAGGACAAAUCUGCCACAAAGCUUGAGAGCAUCUUCGGAUGCAGAGGCGGCAGCCUUCGGUGGCGCGAUAGCGCCAACGUUCUCAACUAUGACACGCAUAACGCGUGCUCCGUUGAAUGGAGUUUAUCAUG [A24G A120U] | -3.9 |
| GGAUCUUCUCGAUCUAACAAAAAAGACUAAUCUGCCACAAAGCUUGAGAGCAUCUUCGGAUGCAGAGGAGGCAGUCUUCGGUGGCGCGAUAGCGCCAACGUUCUCAACUAUGACACGCAAAACGCGUGCUCCGUUGAAGGGAGUUUAUCAUG [A28U C69A C75U U139G] | ≤ -4.2 |
| GGAUCUUCUCGAUCUAACAAAAAAGACAAAUCUGCCACAAAGCUUGAGAGCAUCUUUGGAUGCAGAGGCGGCAGCCUUCGGUGGCGCGAUAGCGCCAACGUUCUCAACUAUGACACGCAAAACGCGUGCUCCGUUGAAUGGAGUUUAUCAGG [C57U U151G] | -3.63 |
| GGAUCUUCUCGAUCUAACAAAAAAGACAAAUCUGCCACAAAGCUUGAGAGCAUCUUCGCAUGCAGAGGCGGCAGCCUUCGGUGGCGCGAUAGCGUCAACGUUCUCAACUAUGACACGCAAAACGCGUGCUCCGUUUAAUGGAGUUUAUCAUG [G59C C95U G136U] | -2.05 |
| GGAUCUUCUCGAUCUAACAAAAAAGACAAAUCUGCCACAAAGCUUGGGAGCACCUUCGGAUGCAGAGGCGGCAGCCUUCGGUGGCGCGAUAGCGCCAACGUUCUCAACUAUGACACGCAAAACGCGUGCUCCGGUGAAUGGAGUUUAUCAUG [A47G U53C U134G] | -3.45 |
| GGAUCUUCUCGAUCUAACAAAAAAGACAAAUCAGCCACAUAGCUUGAGAGCAUCUUUGGAUGCAGAGGCGGCAGCCUUCGGUGGCUCGAUAGCGCCAACGUUCUCAACUAUAACACGCAAAACGCGUGCUCCGUUGAAUGGAGUUUAUCAUG [U33A A40U C57U G86U G112A] | ≤ -4.2 |
| GGAUCUUCUCGAUCUAAUAAAAAAGACAAAUCUGCCACAAAGCUUGAGAGCAUCUUCGGAUGCAGAGGCGGCAGCCUUCGGUGGCGCGAUAGCGCCAACGUUCUCAACUAUGGCACGCAAAAAGCGUGCUCCGUUGAAUGGAGUUUAUCAUG [C18U A113G C123A] | -3.22 |
| GGAUCUUCUCGAUCUUACAUAAAAGACAAAUCUGCCACAAAGCUUGAGAGCAUUUUCCAAUGCAGAGGCGGCAGCCUUCGGUGGCGCGAUAGUGCCAACGUUCUCAACUAUGAUACGCAAAACGCGUGCUCCGUUGAAUGGAGUUUAACAUG [A16U A20U C54U G58C G59A C93U C114U U148A] | ≤ -4.2 |
| GGAUCUGCUCGAUCUAACAAAAAAGACAAAUCUGCCACAAAGCUUGAGAGCAUCUUCGGAUGCAGAGGCGGUAGCCUUCGGUGGCGAGAUAGCGCCAUCGUUCUCAACUAUGACACGCAAAACGCGUGCUCCGUUGACUGGAGUUUAUCAUG [U7G C72U C87A A98U A138C] | ≤ -4.2 |
| GGAUCUUCUCGAUCUAACAAAAAGGAUAAAUCUGCCACAAACCUUGAGAGCAUCGUCGGAUGCAGAGGCGGCAGCCUUCGGUGGCGCGAUAGCGCCAACGUUCUCAACUAUGACACGCAAAACGCGUGCUCCGUUGAAUGGAGUUUAUCAUG [A24G C27U G42C U55G] | ≤ -4.2 |
| GGAUCUUCUCGAUCUAACAAAAAAGACAAAUCUGCCACAAAGCUUGAGAGCAGCUUCCGAUGCAGAGGCGGCAGCCUUCGGUGGCGCGAUAACGCCAACGUUCUCAACUAUGACACGCAAAACGGGUGCUCCGUUGAAUGGAGUUUAUCCUG [U53G G58C G92A C125G A150C] | ≤ -4.2 |
| GGAUCUUCUCGAUCUAACAAAAAAGACAAAUCUGCCACAAAGCUUGACAGCAUCUUAGGAUGCAGAGGCGGGAGCCUUCGGUGGCGCGAUAGCGCCAACGUUCUCAACUAUGACACGCAAAACGCGUGCUCCGUUGAAUGGAGUUUAUCAUG [G48C C57A C72G] | ≤ -4.2 |
| GGAUCUUCUCGAUCUAACAAAAAAGACAAAUUUGCCACAAAGCUUGAGAGCAUCUUCGGAUGCAGAGGCGGCAGCCUUCGGUGGCGCGAUAGCGCCAACGUUCUCAACUAUGACACGCAAAACGCUUGCUCCGUUGAAUGGAGUUUAUCAUG [C32U G126U] | -2.43 |
| GGAUCUUCUCGAUCUAACAAAAAAGACAUAUUUCCCACAAAGCUUGAGAGCAUCUUCGGAUGCAGAGGCGGUAGCCUUCGGUGGCGCGAUAGCGACAACGUUCUCAACUAUGACACGCAAAACGCGUGCUCCGUUGAAUCGAGUUUAUCAUG [A29U C32U G34C C72U C95A G140C] | ≤ -4.2 |
| GGAUCUUCUCGAUCUGACAAAAAAGACAAAUCUGCCACAAAGCUUGAGAGCAUCUUCGGAUGCAGAGGCGGCAGCCUUCGGUGGCGCGAUAGCGCAAACGUUCUCAACUAUGACACGCAAAACGCGUGCUCCGUUGAAUGGAGUUUAUCAUG [A16G C96A] | -0.881 |

Reference: the RNAGym collection of RNA variant scans (doi:10.1073/pnas.2313332121)
